Test [1] deals with angiotensin II type 1 receptor, wild type (human) (UniProt P30556).
The target of test [2] is angiotensin II type 1 receptor I103T-A244S (human) (UniProt P30556).
Test [3] concerns the target angiotensin II type 1 receptor I103T (human) (UniProt P30556).
Test [4] concerns the target angiotensin II type 1 receptor A244S (human) (UniProt P30556).

Chain of βarrestin2-RlucII (P32121 whole entry): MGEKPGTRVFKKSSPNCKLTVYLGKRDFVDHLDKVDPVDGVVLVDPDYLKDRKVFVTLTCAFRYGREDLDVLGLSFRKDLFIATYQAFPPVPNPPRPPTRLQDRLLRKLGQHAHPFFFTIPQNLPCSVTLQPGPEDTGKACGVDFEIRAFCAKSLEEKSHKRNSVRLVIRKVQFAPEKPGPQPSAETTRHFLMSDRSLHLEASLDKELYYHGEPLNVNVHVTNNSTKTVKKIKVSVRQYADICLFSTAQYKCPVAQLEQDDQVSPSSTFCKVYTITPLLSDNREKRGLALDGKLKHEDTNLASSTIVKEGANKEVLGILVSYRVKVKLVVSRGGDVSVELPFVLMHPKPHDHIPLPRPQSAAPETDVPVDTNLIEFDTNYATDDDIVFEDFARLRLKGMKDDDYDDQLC

Take “βarrestin2-RlucII (from UniProt P32121 1-409) (natural protein)”: the AngII-stimulated β-arrestin 2 recruitment to the membrane (BRET2 between βarrestin2-RlucII and rGFP-CaaX), pEC50 of AngII in test [1] was 8.49; in test [2], 8.5; in test [3], 8.54; in test [4] it was 8.68. The AngII-stimulated β-arrestin 2 recruitment to the membrane (BRET2 between βarrestin2-RlucII and rGFP-CaaX), Emax (% WT) in test [2] stood at 50 % WT; in test [3], 97 % WT; in test [4], 106 % WT.

For the origin of these results see paper PMC7786401.
